B1: 56BLH (Fab, V domains shown)
VH: EVQLVQSGAEVKKPGASVKVSCKASGYTFTSYDMHWVRQAPGQGLEWMGRIDPQSGGTKYAQKFQGRATLTVDTSTSTAYMELSRLRSDDTAVYYCARWDYGGQFDVWGQGTLVTVSS
VL: DIQMTQSPSSLSASVGDRVTITCRASQDIYNYLNWYQQKPGKAVKLLIYYTSGLETGVPSRFSGSGSGTDYTLTISSLQPEDFATYFCQQGDTLPWTFGQGTKLEIK
notes: also called 08BLM Fab
B2: 68BLH (Fab, V domains shown)
VH: EVQLVQSGAEVKKPGASVKVSCKASGYTFTSYDMHWVRQAPGQGLEWMGRIDPQSGGEKYAQKFQGRATLTVDTSTSTAYMELSRLRSDDTAVYYCARYDYGGYFDVWGQGTLVTVSS
VL: DIQMTQSPSSLSASVGDRVTITCRASQDIYNYLNWYQQKPGKAVKLLIYYTSRLETGVPSRFSGSGSGTDYTLTISSLQPEDFATYFCQQGDTLPWTFGQGTKLEIK
notes: also called 20BLM Fab
B3: 65BLH (Fab, V domains shown)
VH: EVQLVQSGAEVKKPGASVKVSCKASGYTFTSYDMHWVRQAPGQGLEWMGRIDPQSGGIKYAQKFQGRATLTVDTSTSTAYMELSRLRSDDTAVYYCARWDYGGYFDVWGQGTLVTVSS
VL: DIQMTQSPSSLSASVGDRVTITCRASQDIYNYLNWYQQKPGKAVKLLIYYTSRLETGVPSRFSGSGSGTDYTLTISSLQPEDFATYFCQQGDELPWTFGQGTKLEIK
notes: also called 17BLM Fab
B4: 58BLH (Fab, V domains shown)
VH: EVQLVQSGAEVKKPGASVKVSCKASGYTFTSYDMHWVRQAPGQGLEWMGRIDPQSGGTKYAQKFQGRATLTVDTSTSTAYMELSRLRSDDTAVYYCARWDYGGYFDVWGQGTLVTVSS
VL: DIQMTQSPSSLSASVGDRVTITCRASQDIYNYLNWYQQKPGKAVKLLIYYTSVLETGVPSRFSGSGSGTDYTLTISSLQPEDFATYFCQQGDTLPWTFGQGTKLEIK
notes: also called 10BLM Fab
B5: 57BLH (Fab, V domains shown)
VH: EVQLVQSGAEVKKPGASVKVSCKASGYTFTSYDMHWVRQAPGQGLEWMGRIDPISGGIKYAQKFQGRATLTVDTSTSTAYMELSRLRSDDTAVYYCARWDYGGYFDVWGQGTLVTVSS
VL: DIQMTQSPSSLSASVGDRVTITCRASQDIFNYLNWYQQKPGKAVKLLIYYTSHLETGVPSRFSGSGSGTDYTLTISSLQPEDFATYFCQQGDTLPWTFGQGTKLEIK
notes: also called 09BLM Fab
B6: 61BLH (Fab, V domains shown)
VH: EVQLVQSGAEVKKPGASVKVSCKASGYTFTSYDMHWVRQAPGQGLEWMGRIDPQTGDIKYAQKFQGRATLTVDTSTSTAYMELSRLRSDDTAVYYCARWDYGGQFDVWGQGTLVTVSS
VL: DIQMTQSPSSLSASVGDRVTITCRASQDIYNYLNWYQQKPGKAVKLLIYYTSGLETGVPSRFSGSGSGTDYTLTISSLQPEDFATYFCQQGDTLPWTFGQGTKLEIK
notes: also called 13BLM Fab
B7: 66BLH (Fab, V domains shown)
VH: EVQLVQSGAEVKKPGASVKVSCKASGYTFTSYDMHWVRQAPGQGLEWMGRIDPQSGGIKYAQKFQGRATLTVDTSTSTAYMELSRLRSDDTAVYYCARYDHGGYFDVWGQGTLVTVSS
VL: DIQMTQSPSSLSASVGDRVTITCRASQDIYNYLNWYQQKPGKAVKLLIYYTSRLETGVPSRFSGSGSGTDYTLTISSLQPEDFATYFCQQGDTLPWTFGQGTKLEIK
notes: also called 18BLM Fab
B8: 62BLH (Fab, V domains shown)
VH: EVQLVQSGAEVKKPGASVKVSCKASGYTFTSYDTHWVRQAPGQGLEWMGRIDPQSGGIKYAQKFQGRATLTVDTSTSTAYMELSRLRSDDTAVYYCARWDYGGYFDVWGQGTLVTVSS
VL: DIQMTQSPSSLSASVGDRVTITCRASQDIYNYLNWYQQKPGKAVKLLIYYTSYLETGVPSRFSGSGSGTDYTLTISSLQPEDFATYFCQQGDTLPWTFGQGTKLEIK
notes: also called 14BLM Fab

What was measured:
[1] = molecular target: T1, human LAP-TGFB1 Fc fusion (human); assay: SPR
T1 construct: also called human LAP-TGFβ1-Fc; human LAP-TGFβ-Fc isoform 1

[2] = molecular target: T2, human LAP-TGFB2 Fc fusion (human); assay: SPR pH 7.4
T2 construct: also called human LAP-TGFβ2; LAP-TGFβ isoform 2

[3] = molecular target: T3, human LAP-TGFB3 Fc fusion (human); assay: SPR pH 7.4
T3 construct: also called human LAP-TGFβ3; LAP-TGFβ isoform 3

[4] = molecular target: T1, human LAP-TGFB1 Fc fusion; assay: SPR pH 7.4, antigen-Fc captured, Fab analyte
[5] = molecular target: T1, human LAP-TGFB1 Fc fusion; assay: SPR pH 6.0, antigen-Fc captured, Fab analyte
Protocol: A Series S CM4 sensor chip (Cytiva, catalog BR100534) was immobilized with an anti-human Fc capture antibody following the kit protocol (Cytiva, catalog BR100839) on a Biacore T200 instrument with 1× HBS-EP+ (Teknova, catalog H8022). […] The binding data were double referenced by subtraction of signal from a reference (capture surface only) flow cell and the 0 nM Fab injection. Binding rate constants were determined by fitting the data with a 1:1 binding model (Cytiva Biacore T200 Evaluation software 3.0).

[6] = molecular target: T1, human LAP-TGFB1 Fc fusion; assay: SPR pH 7.4, antigen-Fc captured, Fab analyte; remark: listed apart in the source
[7] = molecular target: T1, human LAP-TGFB1 Fc fusion; assay: SPR pH 7.4, antigen captured on Fab 54BLH
From the text: (§1) A Series S C1 sensor chip (Cytiva, catalog BR100535) was immobilized with low densities of high affinity Fab 54BLH on a Biacore T200 instrument with 1×HBS-EP+(Teknova, catalog H8022). This surface served as a monovalent capture surface for a low-density layer of heterodimer human LAP-TGFβ1 complex leaving the second binding site exposed for monovalent kinetic binding analysis with both mAbs and Fabs. Immobilized flow cell 1 served as the reference and flow cells 2, 3 and 4 were used to evaluate the binding interaction between human LAP-TGFβ1 and yeast display mutant mAbs and Fabs.
(§2) Approximately 15-25 RU of human LAP-TGFβ1-Fc was captured to the Fab capture surface followed by injection of 1:3 serially diluted Fabs and mAbs from 6 nM to 0.07 nM (Fabs: 54BLH, 55BLH, 60BLH, 63BLH, 64BLH-mAbs: 69BLH, 70BLH) and 1:3 serially diluted Fab and mAbs from 60 nM to 0.74 nM (Fabs: 59BLH, 66BLH, 67BLH—mAbs: 74BLH, 75BLH, 78BLH, 79BLH, 81BLH, 82BLH) including 0 nM. The binding data was double referenced by subtraction of signal from a reference flow cell and the 0 nM injections for evaluation of Fabs and mAbs respectively. Binding rate constants were calculated/determined by fitting the data with a 1:1 binding model (Cytiva Biacore T200 Evaluation software 3.0).

[8] = molecular target: T1, human LAP-TGFB1 Fc fusion; assay: SPR pH 6.0, antigen captured on Fab 54BLH
From the text: as §1, §2

T3 sequence (chain, as listed by the source limits assumed): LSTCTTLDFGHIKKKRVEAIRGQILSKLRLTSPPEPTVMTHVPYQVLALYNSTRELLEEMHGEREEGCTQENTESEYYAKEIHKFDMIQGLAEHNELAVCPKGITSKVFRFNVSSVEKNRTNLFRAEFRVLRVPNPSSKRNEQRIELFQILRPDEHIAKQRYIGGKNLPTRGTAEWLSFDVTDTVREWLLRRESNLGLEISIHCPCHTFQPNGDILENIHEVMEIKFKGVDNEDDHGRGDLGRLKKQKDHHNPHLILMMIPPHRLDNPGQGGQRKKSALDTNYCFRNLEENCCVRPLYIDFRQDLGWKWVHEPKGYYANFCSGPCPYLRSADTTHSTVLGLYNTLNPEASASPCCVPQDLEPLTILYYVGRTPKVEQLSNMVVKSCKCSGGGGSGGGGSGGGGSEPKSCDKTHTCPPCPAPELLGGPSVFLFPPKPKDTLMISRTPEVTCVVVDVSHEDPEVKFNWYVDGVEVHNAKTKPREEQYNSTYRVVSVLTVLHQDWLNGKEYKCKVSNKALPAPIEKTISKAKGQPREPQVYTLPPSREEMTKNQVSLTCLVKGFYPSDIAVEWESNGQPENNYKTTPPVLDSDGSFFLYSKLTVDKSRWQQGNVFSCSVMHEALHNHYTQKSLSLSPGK
T2 sequence (chain, as listed by the source limits assumed): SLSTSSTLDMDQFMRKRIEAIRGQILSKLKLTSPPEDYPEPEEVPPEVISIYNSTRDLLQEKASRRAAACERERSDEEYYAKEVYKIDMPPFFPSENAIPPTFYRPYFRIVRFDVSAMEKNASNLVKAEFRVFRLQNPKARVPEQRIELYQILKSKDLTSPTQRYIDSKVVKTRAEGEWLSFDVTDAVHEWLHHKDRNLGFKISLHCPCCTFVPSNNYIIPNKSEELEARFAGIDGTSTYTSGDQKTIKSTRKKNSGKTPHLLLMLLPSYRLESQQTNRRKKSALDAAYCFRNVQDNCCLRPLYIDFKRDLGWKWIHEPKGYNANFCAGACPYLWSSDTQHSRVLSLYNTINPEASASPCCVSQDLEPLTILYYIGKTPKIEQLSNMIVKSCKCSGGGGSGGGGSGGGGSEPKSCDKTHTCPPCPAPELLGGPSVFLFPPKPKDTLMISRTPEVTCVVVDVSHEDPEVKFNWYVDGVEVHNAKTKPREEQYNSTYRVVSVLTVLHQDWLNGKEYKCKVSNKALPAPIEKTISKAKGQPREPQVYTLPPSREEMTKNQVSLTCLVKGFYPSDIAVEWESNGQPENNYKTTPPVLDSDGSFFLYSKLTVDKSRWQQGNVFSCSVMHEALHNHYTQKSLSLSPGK
T1 sequence (chain, as listed by the source limits assumed): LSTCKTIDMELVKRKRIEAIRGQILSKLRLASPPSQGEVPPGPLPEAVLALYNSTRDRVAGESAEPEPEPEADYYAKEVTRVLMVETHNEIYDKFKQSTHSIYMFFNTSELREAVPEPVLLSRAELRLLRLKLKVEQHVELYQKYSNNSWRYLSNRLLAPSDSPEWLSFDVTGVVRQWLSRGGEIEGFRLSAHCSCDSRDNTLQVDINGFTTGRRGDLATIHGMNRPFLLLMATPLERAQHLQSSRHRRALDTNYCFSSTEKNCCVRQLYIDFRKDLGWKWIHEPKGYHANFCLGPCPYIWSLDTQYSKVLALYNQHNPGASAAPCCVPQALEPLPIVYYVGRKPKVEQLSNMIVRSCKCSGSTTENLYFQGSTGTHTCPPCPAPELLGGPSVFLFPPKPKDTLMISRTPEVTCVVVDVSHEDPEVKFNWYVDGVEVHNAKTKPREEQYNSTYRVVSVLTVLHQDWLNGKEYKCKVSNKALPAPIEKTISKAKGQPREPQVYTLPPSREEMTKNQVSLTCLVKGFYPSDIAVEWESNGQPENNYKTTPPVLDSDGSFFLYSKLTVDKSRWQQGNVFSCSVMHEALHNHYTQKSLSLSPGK

Binder	Fold change in KD from pH 7.4 to pH 6 [1]	binding result [2]	binding result [3]	Fold improvement in KD [4]	Kd [4]	koff [4]	kon [4]	Kd [5]	koff [5]	kon [5]	Kd [6]	koff [6]	kon [6]	Kd [7]	koff [7]	kon [7]	Kd [8]	koff [8]	kon [8]
B1	1.7 fold	no binding (tested: 1000 nM Fab)	no binding (tested: 1000 nM Fab)	9760 fold	0.006 nM	2.57e-05 s⁻¹	4.53e+06 M⁻¹ s⁻¹	0.01 nM	5.56e-05 s⁻¹	5.55e+06 M⁻¹ s⁻¹	0.006 nM	2.57e-05 s⁻¹	4.53e+06 M⁻¹ s⁻¹	–	–	–	–	–	–
B2	1.2 fold	no binding (tested: 1000 nM Fab)	no binding (tested: 1000 nM Fab)	134 fold	0.438 nM	0.00331 s⁻¹	7.57e+06 M⁻¹ s⁻¹	0.508 nM	0.00454 s⁻¹	8.94e+06 M⁻¹ s⁻¹	0.438 nM	0.00331 s⁻¹	7.57e+06 M⁻¹ s⁻¹	–	–	–	–	–	–
B3	0.4 fold	no binding (tested: 1000 nM Fab)	no binding (tested: 1000 nM Fab)	401 fold	0.146 nM	0.00107 s⁻¹	7.33e+06 M⁻¹ s⁻¹	–	–	–	0.146 nM	0.00107 s⁻¹	7.33e+06 M⁻¹ s⁻¹	–	–	–	–	–	–
B4	1.6 fold	no binding (tested: 1000 nM Fab)	no binding (tested: 1000 nM Fab)	1100 fold	0.053 nM	0.000313 s⁻¹	5.93e+06 M⁻¹ s⁻¹	0.086 nM	0.000591 s⁻¹	6.88e+06 M⁻¹ s⁻¹	0.053 nM	0.000313 s⁻¹	5.93e+06 M⁻¹ s⁻¹	–	–	–	–	–	–
B5	1.3 fold	no binding (tested: 1000 nM Fab)	no binding (tested: 1000 nM Fab)	723 fold	0.081 nM	0.00049 s⁻¹	6.06e+06 M⁻¹ s⁻¹	0.106 nM	0.00159 s⁻¹	1.54e+07 M⁻¹ s⁻¹	0.081 nM	0.00049 s⁻¹	6.06e+06 M⁻¹ s⁻¹	–	–	–	–	–	–
B6	2.4 fold	no binding (tested: 1000 nM Fab)	no binding (tested: 1000 nM Fab)	4500 fold	0.013 nM	4.52e-05 s⁻¹	3.57e+06 M⁻¹ s⁻¹	0.031 nM	0.000121 s⁻¹	3.91e+06 M⁻¹ s⁻¹	0.013 nM	4.52e-05 s⁻¹	3.57e+06 M⁻¹ s⁻¹	–	–	–	–	–	–
B7	–	no binding (tested: 1000 nM Fab)	no binding (tested: 1000 nM Fab)	16 fold	3.73 nM	0.00764 s⁻¹	2.05e+06 M⁻¹ s⁻¹	–	0.0221 s⁻¹	2.09e+06 M⁻¹ s⁻¹	–	–	–	3.13 nM	0.0181 s⁻¹	5.76e+06 M⁻¹ s⁻¹	16.8 nM	0.0329 s⁻¹	1.96e+06 M⁻¹ s⁻¹
B8	1.2 fold	no binding (tested: 1000 nM Fab)	no binding (tested: 1000 nM Fab)	222 fold	0.246 nM	0.00124 s⁻¹	4.69e+06 M⁻¹ s⁻¹	0.29 nM	0.00168 s⁻¹	5.8e+06 M⁻¹ s⁻¹	0.246 nM	0.00124 s⁻¹	4.69e+06 M⁻¹ s⁻¹	–	–	–	–	–	–
